Starred links: 1 amine or outer side, 2 acyl side, 3 side chain; linkers in the order of their positions; H or OH if unused. Positions of bridges follow the written chain, without caps; N, C: chain ends. Non-standard residues stand in square brackets, D forms with d. Primed or numbered codes have the meaning given here. *: point of attachment. PyrS2″ = (S)-3-amino-1-((pent-4-en-1-yloxy)carbonyl)pyrrolidine-3-carboxylic acid (stapling residue), C=CCCCOC(=O)N1CC[C@@](N[*:1])(C(=O)[*:2])C1; B5(24) = 2-amino-2-(pent-4-en-1-yl)hept-6-enoic acid, 2,2-bis(4-pentenyl)glycine (stitching residue), C=CCCCC(CCCC=C)(N[*:1])C(=O)[*:2]; B5(4) = 2,2-bis(4-pentenyl)glycine = 2-amino-2-(pent-4-en-1-yl)hept-6-enoic acid (stitching residue), C=CCCCC(CCCC=C)(N[*:1])C(=O)[*:2]; B5(5) = 2,2-bis(4-pentenyl)glycine, 2-amino-2-(pent-4-en-1-yl)hept-6-enoic acid (stitching residue), C=CCCCC(CCCC=C)(N[*:1])C(=O)[*:2]; B5(33) = 2-amino-2-(pent-4-en-1-yl)hept-6-enoic acid (bis-pentenylglycine, two olefin side chains), C=CCCCC(CCCC=C)(N[*:1])C(=O)[*:2]; PyrS2 = (S)-3-amino-1-((pent-4-en-1-yloxy)carbonyl)pyrrolidine-3-carboxylic acid, C=CCCCOC(=O)N1CC[C@@](N[*:1])(C(=O)[*:2])C1; B5(3) = 2,2-bis(4-pentenyl)glycine (stitching residue), C=CCCCC(CCCC=C)(N[*:1])C(=O)[*:2]; mPEG2 = N-terminal 3-(2-methoxyethoxy)propanoic acid, COCCOCCC(=O)*; Phe(3-CF3) = N[C@@H](Cc1cccc(C(F)(F)F)c1)C(=O)O; Phe(3-COOH) = N[C@@H](Cc1cccc(C(=O)O)c1)C(=O)O; Phe(3-OMe) = COc1cccc(C[C@H](N)C(=O)O)c1; Phe(2-Cl) = N[C@@H](Cc1ccccc1Cl)C(=O)O; 1Nal = N[C@@H](Cc1cccc2ccccc12)C(=O)O; 2Nal = N[C@@H](Cc1ccc2ccccc2c1)C(=O)O; Bta = N[C@@H](Cc1csc2ccccc12)C(=O)O; Lys(iPr) = CC(C)NCCCC[C@H](N)C(=O)O; αAllylPro = C=CC[C@@]1(C(=O)O)CCCN1; tBuAla = CC(C)(C)C[C@H](N)C(=O)O; Cha = N[C@@H](CC1CCCCC1)C(=O)O; S8 = C=CCCCCCC[C@](C)(N)C(=O)O; Thr(ol) = C[C@@H](O)[C@H](N)CO; Propanoyl(3-OMe) = COCCC(=O)*; Leu(ol) = CC(C)C[C@H](N)CO; Alaol = C[C@@H](CO)N*; Ms = CS(=O)(=O)*
T1: B-cat-Halo (Homo sapiens (Human), UniProt P35222 1-781)
T1 sequence: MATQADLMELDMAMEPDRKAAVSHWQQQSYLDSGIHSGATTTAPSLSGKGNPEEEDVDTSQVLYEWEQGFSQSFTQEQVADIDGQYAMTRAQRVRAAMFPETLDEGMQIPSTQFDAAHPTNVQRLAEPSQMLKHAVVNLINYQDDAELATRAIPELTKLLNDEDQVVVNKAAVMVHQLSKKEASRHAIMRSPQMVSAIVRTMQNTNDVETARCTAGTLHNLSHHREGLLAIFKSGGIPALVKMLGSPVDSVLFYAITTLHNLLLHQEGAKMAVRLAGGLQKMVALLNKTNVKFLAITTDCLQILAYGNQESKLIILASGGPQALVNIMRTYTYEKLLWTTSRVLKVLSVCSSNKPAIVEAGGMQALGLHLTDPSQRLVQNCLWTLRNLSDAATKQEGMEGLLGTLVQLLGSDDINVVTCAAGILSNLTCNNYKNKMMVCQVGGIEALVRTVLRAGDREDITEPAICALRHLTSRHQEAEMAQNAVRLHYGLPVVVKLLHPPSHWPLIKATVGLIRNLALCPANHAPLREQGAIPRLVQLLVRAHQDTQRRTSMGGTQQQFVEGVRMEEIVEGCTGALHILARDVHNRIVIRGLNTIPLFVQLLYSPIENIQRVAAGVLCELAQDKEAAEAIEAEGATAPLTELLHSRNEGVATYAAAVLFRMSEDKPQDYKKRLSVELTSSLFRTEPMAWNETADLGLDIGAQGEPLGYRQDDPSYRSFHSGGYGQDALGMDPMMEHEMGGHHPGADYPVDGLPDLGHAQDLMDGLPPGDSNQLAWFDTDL

T2: B-cat-Halo (UniProt P35222 1-781)
T2 sequence (looked up): T1 sequence

T3: B-cat-Halo (beta-catenin HaloTag NanoBRET construct expressed in HEK293 cells) (Homo sapiens (Human), UniProt P35222 1-781)
T3 sequence: T1 sequence

B1: I-1126 (peptide)
peptide: Ac-[αAllylPro]D[Cha][B5(3)]DDAAFS[PyrS2″]F[Bta]Q-NH2
modifications: staple 1-4, 4-11 (inferred); not fully specified (residue 9); printed as Ac-PL3-Asp-Cha-B5-Asp-Asp-Ala-Ala-4F3MeF-Ser-PyrS2-Phe-BztA-Gln-NH2
B2: I-1123 (peptide)
peptide: Ac-[αAllylPro]D[tBuAla][B5(3)]DDAAFL[PyrS2″][Phe(2-Cl)][Bta]Q-NH2
modifications: staple 1-4, 4-11 (inferred); not fully specified (residue 9); printed as Ac-PL3-Asp-Npg-B5-Asp-Asp-Ala-Ala-4F3MeF-Leu-PyrS2-2C1F-BztA-Gln-NH2
B3: I-1120 (peptide)
peptide: Ac-[αAllylPro]D[Cha][B5(3)]DDAAFS[PyrS2″][Phe(2-Cl)][Bta]Q-NH2
modifications: staple 1-4, 4-11 (inferred); not fully specified (residue 9); printed as Ac-PL3-Asp-Cha-B5-Asp-Asp-Ala-Ala-4F3MeF-Ser-PyrS2-2C1F-BztA-Gln-NH2
B4: I-1258 (peptide)
peptide: Ms-[αAllylPro]D[tBuAla][B5(33)]DDAAFN[PyrS2][Phe(2-Cl)][Bta][dT]-NH2
modifications: staple 1-4, 4-11; not fully specified; printed as MeSO2-PL3-Asp-Npg-B5-Asp-Asp-Ala-Ala-Phe-Asn-PyrS2-2C1F-BztA-dThr-NH2
B5: I-1260 (peptide)
peptide: XDXXDDAAFTXFXQ
modifications: not fully specified; MeSO2-PL3-Asp-Npg-B5-Asp-Asp-Ala-Ala-Phe-Thr-S8-2C1F-BztA-Gln-NH2; stapled by olefin metathesis (PL3-B5 and B5-S8)

Target: T1, B-cat-Halo
Test: cell-based or functional assay

Ac-[αAllylPro]D[tBuAla][B5(3)]D[Phe(3-COOH)]AAFA[PyrS2″][Phe(2-Cl)][Bta]N-NH2 (staple 1-4, 4-11) [I-2036] and Ac-[αAllylPro]D[tBuAla][B5(3)]D[Phe(3-COOH)]AAFN[PyrS2″][Phe(2-Cl)][Bta]F-NH2 (staple 1-4, 4-11) [I-2033] are within 1.5-fold of each other in “NanoBRET Abs IC50” value: 12.9 µM for the first, 9.5 µM for the second.

Ac-[αAllylPro]D[tBuAla][B5(3)]D[Phe(3-COOH)]AAFA[PyrS2″][Phe(2-Cl)][Bta]N-NH2 (staple 1-4, 4-11; also: staple isomer, earlier eluting HPLC peak) [I-2035] was tested, and the “NanoBRET Abs IC50” value was 14.5 µM.

Target: T2, B-cat-Halo
Test: cell-based or functional assay

B1 and Ac-[αAllylPro]D[Cha][B5(3)]DDAA[Phe(3-CF3)]S[PyrS2″]F[Bta]Q-NH2 (staple 1-4, 4-11 (inferred)) [I-1125] cannot be ordered by “NanoBRET Abs IC50” value: 26.8 µM for the first, greater than 20 µM for the second.

Ac-[αAllylPro]D[tBuAla][B5(3)]DDAA[Phe(3-CF3)]L[PyrS2″][Phe(2-Cl)][Bta]Q-NH2 (staple 1-4, 4-11 (inferred)) [I-1122] and Ac-[αAllylPro]D[Cha][B5(24)]DDAAFS[PyrS2″][Phe(2-Cl)][Bta][dT]-NH2 (staple 1-4, 4-11) [I-1136] are within 1.5-fold of each other in “NanoBRET Abs IC50” value: 12.3 µM for the first, 14.9 µM for the second.

Going from Ac-[αAllylPro]D[tBuAla][B5(3)]DDAA[Phe(3-CF3)]L[PyrS2″]F[Bta]Q-NH2 (staple 1-4, 4-11 (inferred)) [I-1128] to Ac-[αAllylPro]D[tBuAla][B5(24)]DD[Lys(iPr)]AFN[PyrS2″][Phe(2-Cl)][Bta]Q-NH2 (staple 1-4, 4-11) [I-1131], the “NanoBRET Abs IC50” value rises from 8.1 µM to 18.8 µM (2.3-fold).

B2 and Ac-[αAllylPro]D[tBuAla][B5(24)]DDA[Lys(iPr)]FN[PyrS2″][Phe(2-Cl)][Bta]Q-NH2 (staple 1-4, 4-11) [I-1132] cannot be ordered by “NanoBRET Abs IC50” value: 28.5 µM for the first, greater than 20 µM for the second.

Going from Ac-[αAllylPro]D[Cha][B5(3)]DDAA[Phe(3-OMe)]S[PyrS2″]F[Bta]Q-NH2 (staple 1-4, 4-11 (inferred)) [I-1124] to Ac-[αAllylPro]D[tBuAla][B5(3)]DDAA[Phe(3-OMe)]L[PyrS2″][Phe(2-Cl)][Bta]Q-NH2 (staple 1-4, 4-11 (inferred)) [I-1121], the “NanoBRET Abs IC50” value falls from greater than 20 µM to 9.2 µM.

Ac-[αAllylPro]D[tBuAla][B5(3)]DDAA[Phe(3-OMe)]L[PyrS2″]F[Bta]Q-NH2 (staple 1-4, 4-11 (inferred)) [I-1127] and Ac-[αAllylPro]D[tBuAla][B5(24)]DDAAFN[PyrS2″][Phe(2-Cl)][Bta][Lys(iPr)]-NH2 (staple 1-4, 4-11) [I-1130] are within 1.5-fold of each other in “NanoBRET Abs IC50” value: 5.4 µM for the first, 7.6 µM for the second.

B3 was tested, and the “NanoBRET Abs IC50” value was greater than 20 µM.

Target: T3, B-cat-Halo (beta-catenin HaloTag …)
Test: cell-based or functional assay

Ac-[αAllylPro]D[tBuAla][B5(5)]DTAA[2Nal]T[PyrS2″]F[Bta]S-NH2 (staple 1-4, 4-11) [I-1267] and mPEG2-[αAllylPro]D[tBuAla][B5(33)]DDAAFT[S8][Phe(2-Cl)][Bta]Q-NH2 (staple 1-4, 4-11) [I-1255] cannot be ordered by “NanoBRET Abs IC50” value: 36.9 µM for the first, greater than 20 µM for the second.

Ac-[αAllylPro]D[tBuAla][B5(5)]DTAA[1Nal]T[PyrS2″]F[Bta]S-NH2 (staple 1-4, 4-11) [I-1266] and Ac-[αAllylPro]D[tBuAla][B5(33)]DTALFT[PyrS2]F[Bta]S-NH2 (staple 1-4, 4-11) [I-1265] cannot be ordered by “NanoBRET Abs IC50” value: greater than 20 µM for the first, 22.7 µM for the second.

Compared with B4, {Propanoyl(3-OMe)}-[αAllylPro]D[tBuAla][B5(33)]DDAAFN[PyrS2][Phe(2-Cl)][Bta][dT]-NH2 (staple 1-4, 4-11) [I-1259] is lower in “NanoBRET Abs IC50” value: greater than 20 µM for the first, 18.1 µM for the second.

First: Ac-[αAllylPro]D[tBuAla][B5(33)]DTAAFT[PyrS2]F[Bta]S-NH2 (staple 1-4, 4-11) [I-1263]
Second: mPEG2-[αAllylPro]D[tBuAla][B5(5)]DDAAFN[PyrS2″][Phe(2-Cl)][Bta][dT]-NH2 (staple 1-4, 4-11) [I-1253]
The “NanoBRET Abs IC50” value of the first is lower: 20 µM for the first, greater than 20 µM for the second.

Ac-[αAllylPro]D[tBuAla][B5(4)]DDAAFL[PyrS2″][Phe(2-Cl)][Bta][Thr(ol)] (staple 1-4, 4-11) [I-1249] and B5 are within 1.5-fold of each other in “NanoBRET Abs IC50” value: 25.2 µM for the first, 24 µM for the second.

First: {Propanoyl(3-OMe)}-[αAllylPro]D[tBuAla][B5(33)]DDAAFT[S8][Phe(2-Cl)][Bta]Q-NH2 (staple 1-4, 4-11) [I-1261]
Second: Ac-[αAllylPro]D[tBuAla][B5(33)]DTLAFT[PyrS2]F[Bta]S-NH2 (staple 1-4, 4-11) [I-1264]
The “NanoBRET Abs IC50” value of the first is lower: 19.8 µM for the first, greater than 20 µM for the second.

Ac-[αAllylPro]D[tBuAla][B5(4)]DDAAFT[PyrS2″][Phe(2-Cl)][Bta][Leu(ol)] (staple 1-4, 4-11) [I-1247] and Ac-[αAllylPro]D[tBuAla][B5(4)]DDAAFL[PyrS2″][Phe(2-Cl)][Bta]-Alaol (staple 1-4, 4-11) [I-1250] cannot be ordered by “NanoBRET Abs IC50” value: greater than 20 µM for the first, greater than 20 µM for the second.

For Ac-[αAllylPro]D[tBuAla][B5(4)]DDAAFL[PyrS2″][Phe(2-Cl)][Bta]Q-NHEt (staple 1-4, 4-11) [I-1248], the “NanoBRET Abs IC50” value was 29.7 µM.
